The target of the assay is subunit of the Mo-Fe protein from Azotobacter vinelandii nitrogenase (Azotobacter vinelandii (strain OP)) (UniProt P07328). Nature of the assay: electron microscopy.

Consider “subunit of the Mo-Fe protein from Azotobacter vinelandii nitrogenase (from UniProt P07328 1-492) (natural protein)”, for which the stoichiometry N (in general, a count of units in the complex or per binding partner) was 4.

These data come from paper PMC2109139.
